Reference: publication PMC6565675, “Cryo-electron microscopy structure of an archaeal ribonuclease P holoenzyme” (Nature Communications, 2019)

Tests used:
[1] = target: T1, Methanocaldococcus jannaschii RNase P protein subunit Rpp30 (Methanocaldococcus jannaschii, UniProt Q58539 1-232); test: cryo-EM structure; MjaRNase P holoenzyme reconstituted in vitro from RPR and the purified protein components, purified by SEC; alone (4.6 Å) and with E. coli tRNA^Tyr (4.3 Å); buffer exchanged on the grid to 40 mM Hepes, pH 7.5, 200 mM NaCl; C2 symmetry applied; details: both partners purified
T1 construct: Rpp30, protein subunit of RNase P of Methanocaldococcus jannaschii; full-length gene cloned; Purified as the (Pop5-Rpp30)2 heterotetramer; two copies in the dimeric holoenzyme; also called MjaRpp30; source: E. coli BL21 (DE3), co-expressed with MjaPop5 from pETDuet, purified (Ni-NTA, heating at 65 °C, ion-exchange, SEC)
T1 sequence (looked up): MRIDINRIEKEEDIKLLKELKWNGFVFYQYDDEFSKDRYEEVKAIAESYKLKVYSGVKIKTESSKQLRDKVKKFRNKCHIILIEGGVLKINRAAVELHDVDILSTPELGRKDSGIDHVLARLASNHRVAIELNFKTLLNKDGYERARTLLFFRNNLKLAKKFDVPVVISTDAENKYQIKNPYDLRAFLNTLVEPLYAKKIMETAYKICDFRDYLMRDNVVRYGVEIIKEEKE

[2] = target: T2, Methanocaldococcus jannaschii RNase P protein subunit Rpp21 (Methanocaldococcus jannaschii, UniProt Q58372 1-128); test: as above; details: both partners purified
T2 construct: Rpp21, protein subunit of RNase P of Methanocaldococcus jannaschii; also called MjaRpp21; source: E. coli, expressed as the MjaRpp29-MjaRpp21 heterodimer, purified by the same procedure as Pop5-Rpp30
T2 sequence: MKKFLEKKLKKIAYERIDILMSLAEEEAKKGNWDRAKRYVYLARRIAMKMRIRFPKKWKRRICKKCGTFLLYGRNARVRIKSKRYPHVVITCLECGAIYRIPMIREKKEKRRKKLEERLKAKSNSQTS

binding result [1]: binds | binding result [2]: binds
B1: Methanocaldococcus jannaschii RNase P protein subunit Rpp29 (natural protein)
chain: MITPHNILRHELIGLKVEIVEAKNKAMIGIKGKVVDETRNTLVIEKEDGREVVIPKDIAVFLFQLKGCKVKVDGRLLIGRPEERLKKKIKILYPY
notes: Rpp29, protein subunit of RNase P of Methanocaldococcus jannaschii; also called MjaRpp29; source: E. coli, expressed as the MjaRpp29-MjaRpp21 heterodimer, purified by the same procedure as Pop5-Rpp30
